{
  "source": "patent US7981652B2",
  "about": "“Modified cytochrome P450 monooxygenases” (BASF Aktiengesellschaft, priority 1999, dated 2011)",
  "molecules": {"B1": {"name": "WT: wild-type cytochrome P450 monooxygenase BM-3 from Bacillus megaterium, SEQ ID NO:2 (protein, listed as Bacillus megaterium)", "chain": "TIKEMPQPKTFGELKNLPLLNTDKPVQALMKIADELGEIFKFEAPGRVTRYLSSQRLIKEACDESRFDKNLSQALKFVRDFAGDGLFTSWTHEKNWKKAHNILLPSFSQQAMKGYHAMMVDIAVQLVQKWERLNADEHIEVPEDMTRLTLDTIGLCGFNYRFNSFYRDQPHPFITSMVRALDEAMNKLQRANPDDPAYDENKRQFQEDIKVMNDLVDKIIADRKASGEQSDDLLTHMLNGKDPETGEPLDDENIRYQIITFLIAGHETTSGLLSFALYFLVKNPHVLQKAAEEAARVLVDPVPSYKQVKQLKYVGMVLNEALRLWPTAPAFSLYAKEDTVLGGEYPLEKGDELMVLIPQLHRDKTIWGDDVEEFRPERFENPSAIPQHAFKPFGNGQRACIGQQFALHEATLVLGMMLKHFDFEDHTNYELDIKETLTLKPEGFVVKAKSKKIPLGGIPSPSTEQSAKKVRKKAENAHNTPLLVLYGSNMGTAEGTARDLADIAMSKGFAPQVATLDSHAGNLPREGAVLIVTASYNGHPPDNAKQFVDWLDQASADEVKGVRYSVFGCGDKNWATTYQKVPAFIDETLAAKGAENIADRGEADASDDFEGTYEEWREHMWSDVAAYFNLDIENSEDNKSTLSLQFVDSAADMPLAKMHGAFSTNVVASKELQQPGSARSTRHLEIELPKEASYQEGDHLGVIPRNYEGIVNRVTARFGLDASQQIRLEAEEEKLAHLPLAKTVSVEELLQYVELQDPVTRTQLRAMAAKTVCPPHKVELEALLEKQAYKEQVLAKRLTMLELLEKYPACEMKFSEFIALLPSIRPRYYSISSSPRVDEKQASITVSVVSGEAWSGYGEYKGIASNYLAELQEGDTITCFISTPQSEFTLPKDPETPLIMVGPGTGVAPFRGFVQARKQLKEQGQSLGEAHLYFGCRSPHEDYLYQEELENAQSEGIITLHTAFSRMPNQPKTYVQHVMEQDGKKLIELLDQGAHFYICGDGSQMAPAVEATLMKSYADVHQVSEADARLWLQQLEEKGRYAKDVWAG"}},
  "key": {"[1]": {"assay": "pNCA enzyme activity assay, substrate 15-pNCA", "type": "biochemical", "procedure": "(§1) For the pNCA activity assay use was made of 8 μl of a 10 mM pNCA solution in DMSO in a disposable cell in an end volume of 1 ml. After 850 μl of Tris/HCl buffer (0.1 M, pH 8.2) and 0.1 to 0.4 nmol P450 had been added to the pNCA/DMSO solution in question, the samples were preincubated for 5 minutes before the reaction was started by adding 50 μl of an aqueous solution of […]. To determine Kcat and Km, a concentration series was established for the various pNCA substrates (regarding details of the detection method, see (12)).\n(§2) A 96-well plate (Greiner, Frickenhausen, Germany) was used for carrying out the pNCA test in a microtiter plate. In a total reaction volume of 250 μl in Tris/HCl buffer (0.1 M, pH 8.2), the reaction batch contained either 60 nmol 8-pNCA, 15 nmol 10-pNCA, 15 nmol 12-pNCA or 15 nmol 15-pNCA, in each case dissolved in 2.5 μl of DMSO. After the samples had been preincubated for 5 minutes with 40 μl of P450 BM-3 samples, the reaction was started by injecting, into each well, 30 μl of a 1 mM NADPH solution. Immediately after the NADPH solution had been added, the plates were measured in a plate reader at 405 nm."}, "[2]": {"assay": "pNCA enzyme activity assay, substrate 12-pNCA", "type": "biochemical", "procedure": "as §1, §2"}, "[3]": {"assay": "pNCA enzyme activity assay, substrate 10-pNCA", "type": "biochemical", "procedure": "as §1, §2"}, "[4]": {"assay": "pNCA enzyme activity assay, substrate 8-pNCA", "type": "biochemical", "procedure": "as §1, §2"}, "[5]": {"assay": "Hydroxylation of lauric acid with P450 BM-3 mutants, GC analysis of products", "type": "biochemical", "procedure": "The following batch was chosen to hydroxylate the fatty acids in the presence of P450 BM-3 or its mutants:\nPrior to the reaction, the enzyme lyophilisate was dissolved in 1 ml of reaction buffer and first incubated for 30 minutes at 36° C. Like the addition of 2% v/v acetone, the incubation leads to an increase in activity of 60 and 75%, respectively.\nAfter 5 minutes' incubation, 500 μl of the previously prepared NADPH solution (12.5 mg/ml) were added. The course of the reaction is monitored by absorption measurements at 340 nm, and the consumption of NADPH can be observed. Theoretically 4 ml of NADPH solution would be required for a stoichiometric conversion, however, an unduly high NADPH concentration in the reaction solution results in inactivation of the enzyme, which is why the cofactor is added in 500 μl steps.\nAfter the reaction had ended, the solution was acidified with 5M hydrochloric acid to a pH of 2. The fatty acids or hydroxylated fatty acids precipitate during this and result in a noticeable cloudiness of the solution. Thereafter, the mixture was extracted twice with in each case 10 ml of dichloromethane and dried over sodium sulfate. After filtration through a folded filter, the dichloromethane was removed on a rotary evaporator or by evaporation with nitrogen. The white solid which remained was taken up in 2 ml of dichloromethane and used in the GC analysis.\nA Fisons gas chromatograph (Fisons Instruments Mega Series, Mainz, Germany) equipped with FID was used for the analysis (Optima 5-column, internal diameter 25 m×0.25 mm, Macherey & Nagel, Düren, Germany).\nFor analysis, starting materials and products were silylated with MSHFBA. During this, all hydroxyl and acid groups are converted into the corresponding trimethylsilyl ethers and esters, respectively. Care must be taken that the sample is anhydrous since otherwise side reactions with the silylating agent result. 15 μl of MSHFBA were pipetted into 10 μl of the hydroxy-fatty-acid-containing dichloromethane solution and the mixture was incubated for 15 minutes at room temperature. After 25 μl of dichloromethane had been added, the GC analysis was carried out.\nTo this end, 1 μl of the silylated samples were injected into the gas chromatograph. Injector and detector temperature were 350° C. The following temperature programmes were used:\nTo determine the reaction yields, gas chromatograms of standards were recorded. […] These ion fluxes are not proportional to the quantitative ratio of starting material and product. […] The empirical formulae of the standards and of the products are identical, and the structure only differs with regard to the position of the hydroxyl group, which is why approximately identical detectable ion fluxes can be assumed for identical quantities."}, "[6]": {"settings": "from reference (12); cited from earlier work"}, "[7]": {"settings": "from reference (1); cited from earlier work"}},
  "data": [
    {"molecule": "B1", "values": [
      {"measurement": "Specific activity", "setting": "[1]", "value": 405, "unit": "nmol/min/nmol P450"},
      {"measurement": "Specific activity", "setting": "[2]", "value": 141, "unit": "nmol/min/nmol P450"},
      {"measurement": "Specific activity", "setting": "[3]", "value": 339, "unit": "nmol/min/nmol P450"},
      {"measurement": "Specific activity", "setting": "[4]", "value": 15, "unit": "nmol/min/nmol P450"},
      {"measurement": "positions in which the enzyme is active", "setting": "[5]; lauric acid", "value": "only active in the positions w-1, w-2 and w-3"},
      {"measurement": "Hydroxylation position ω-1, share of products", "setting": "[5]; lauric acid (C12)", "value": 38, "unit": "%"},
      {"measurement": "Hydroxylation position ω-2, share of products", "setting": "[5]; lauric acid (C12)", "value": 28, "unit": "%"},
      {"measurement": "Hydroxylation position ω-3, share of products", "setting": "[5]; lauric acid (C12)", "value": 34, "unit": "%"},
      {"measurement": "conversion of 12-pNCA (ω-hydroxylation)", "setting": "[6]", "value": 33, "unit": "%"},
      {"measurement": "catalytic activity for fatty acids with a chain length of less than 12 carbon atoms", "setting": "[7]", "value": "no catalytic activity"}
    ]}
  ]
}
